In PMC9671094 (Immunity, 2022):

Target: T1, BG505 SOSIP.D664 (HIV-1 isolate BG505 (clade A), stabilised)
T1 construct: also called BG505.SOSIP.664; source: HEK 293F, co-transfected with furin, purified (HisTrap, SEC); copies: 3 + 3
Experiment: SPR; IgG captured as ligand by anti-human IgG (Human Antibody Capture Kit) on a GLC chip, ProteOn XPR36; trimer as analyte; 1x HBS-EP+ pH 7.4 with 1 mg/ml BSA; 1:1 binding model; highest SOSIP concentration 5 uM or 10 uM
Details: both partners purified

B1: PG9.iGL (antibody, V domains shown)
VH: QVQLVESGGGVVQPGRSLRLSCAASGFTFSSYGMHWVRQAPGKGLEWVAVISYDGSNKYYADSVKGRFTISRDNSKNTLYLQMNSLRAEDTAVYYCAREAGGPDYRNGYNYYDFWSGYYYYYYMDVWGKGTTVTVSS
VL: QSALTQPASVSGSPGQSITISCTGTSSDVGGYNYVSWYQQHPGKAPKLMIYEVSNRPSGVSNRFSGSKSGNTASLTISGLQAEDEADYYCSSYTSSSTVVFGGGTKLTVL
In the case of B1, the Kd is reported as > 5 µM.

B2: PCT64.13C (antibody, V domains shown)
VH: EVQLVESGGGLVKPGGSLRLSCAASGFTFTNAWLDWVRQAPGKGLEWVGRIKSKTDGGTTDHAAPVKGRFTISRDDSKNTVYLQMNSLKIEDTAVYYCTTGVETYDFWSGYDDHYYDYYFKDVWGKGTTVTVSS
VL: EIVLTQSPGTLSLSPGERATLSCRASQSVSNNYLAWYQQKPGQAPRLLIYGASSRATGIPDRFSGSGSGTDFTLTISRLEPEDFAVYYCQQSARSFTFGPGTKVDIK
For B2, the Kd was > 5 µM.
